Blank lines part the entries; values can stand above or below the binder they belong to. Positions of bridges follow the written chain, without caps; N, C: chain ends.
Biological target: TrkB receptor on rat cerebellar neurons (rat, UniProt Q63604 32-821)
Experiment: cell-based or functional assay

Sequence of TrkB receptor on rat cerebellar neurons (Q63604 32-821): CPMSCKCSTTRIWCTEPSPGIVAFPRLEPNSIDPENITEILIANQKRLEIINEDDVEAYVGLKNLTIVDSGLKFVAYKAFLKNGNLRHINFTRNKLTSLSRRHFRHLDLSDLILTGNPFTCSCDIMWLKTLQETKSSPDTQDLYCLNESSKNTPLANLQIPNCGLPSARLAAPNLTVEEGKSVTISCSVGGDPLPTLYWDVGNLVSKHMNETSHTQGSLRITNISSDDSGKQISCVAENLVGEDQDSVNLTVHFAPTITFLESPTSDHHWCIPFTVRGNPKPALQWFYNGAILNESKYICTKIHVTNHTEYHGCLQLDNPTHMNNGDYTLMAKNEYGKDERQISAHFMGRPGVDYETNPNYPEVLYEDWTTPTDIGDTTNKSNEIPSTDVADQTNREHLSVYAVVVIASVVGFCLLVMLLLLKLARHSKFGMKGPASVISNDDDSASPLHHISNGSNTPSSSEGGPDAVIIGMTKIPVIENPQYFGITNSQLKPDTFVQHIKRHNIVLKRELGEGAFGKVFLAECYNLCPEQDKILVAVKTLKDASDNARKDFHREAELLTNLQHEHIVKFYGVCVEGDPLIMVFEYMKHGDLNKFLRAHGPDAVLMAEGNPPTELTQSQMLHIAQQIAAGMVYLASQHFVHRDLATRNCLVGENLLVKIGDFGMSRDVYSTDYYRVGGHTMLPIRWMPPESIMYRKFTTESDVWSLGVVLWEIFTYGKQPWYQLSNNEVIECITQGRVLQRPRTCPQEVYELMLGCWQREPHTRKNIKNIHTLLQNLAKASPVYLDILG

increase of neurite length against control culture, BDNF at 5 ng/ml: 60 to 70%
neurite outgrowth of rat cerebellar neurons, concentration of maximal response: 1 to 10 ng/mL
B1: brain-derived neurotrophic factor (BDNF), recombinant human (ligand)
chain: HSDPARRGELSVCDSISEWVTAADKKTAVDMSGGTVTVLEKVPVSKGQLKQYFYETKCNPMGYTKEGCRGIDKRHWNSQCRTTQSYVRALTMDSKKRIGWRFIRIDTSCVCTLTIKRGR

EC50 of stimulation of neurite outgrowth: ~300 nM
B2: N-Ac-…-NH2 (peptide)
peptide: Ac-CSRRGELAASRRGELC-NH2
modifications: disulfide 1-16
SMILES: CC(=O)N[C@H]1CSSC[C@@H](C(N)=O)NC(=O)[C@H](CC(C)C)NC(=O)[C@H](CCC(=O)O)NC(=O)CNC(=O)[C@H](CCCNC(=N)N)NC(=O)[C@H](CCCNC(=N)N)NC(=O)[C@H](CO)NC(=O)[C@H](C)NC(=O)[C@H](C)NC(=O)[C@H](CC(C)C)NC(=O)[C@H](CCC(=O)O)NC(=O)CNC(=O)[C@H](CCCNC(=N)N)NC(=O)[C@H](CCCNC(=N)N)NC(=O)[C@H](CO)NC1=O

neurite outgrowth of rat cerebellar neurons, concentration of maximal response: 1 to 10 ng/mL
B3: neurotrophin-4 (NT-4/5), recombinant human (ligand)
chain: GVSETAPASRRGELAVCDAVSGWVTDRRTAVDLRGREVEVLGEVPAAGGSPLRQYFFETRCKADNAEEGGPGAGGGGCRGVDRRHWVSECKAKQSYVRALTADAQGRVGWRWIRIDTACVCTLLSRTGRA

inhibition of the BDNF response, fold against the NGF and NT-3 derived peptides: ~5 fold
B4: N-Ac-CSRRGEC-NH2 (peptide)
peptide: Ac-CSRRGEC-NH2
modifications: disulfide 1-7
SMILES: CC(=O)N[C@H]1CSSC[C@@H](C(N)=O)NC(=O)[C@H](CCC(=O)O)NC(=O)CNC(=O)[C@H](CCCNC(=N)N)NC(=O)[C@H](CCCNC(=N)N)NC(=O)[C@H](CO)NC1=O

Source: patent publication US20050164920A1 (Pfizer, published 2005)
